According to patent US20180362604A1:

Experiments:
Myostatin [1] = target: Myostatin (UniProt O14793); experiment: cell-based or functional assay
Activin A = Activin A (UniProt P08476); experiment: cell-based or functional assay
FcRn receptor [2] = experiment: FcRn binding, 'standard methods'
Myostatin [3] = target: Myostatin (UniProt O14793); experiment: SPR
FcRn receptor [4] = experiment: SPR
Myostatin [5] = target: Myostatin (UniProt O14793); experiment: SPR (BIAcore), anti-human Fc capture, myostatin as analyte

Myostatin, sequence (O14793 267-375 limits assumed): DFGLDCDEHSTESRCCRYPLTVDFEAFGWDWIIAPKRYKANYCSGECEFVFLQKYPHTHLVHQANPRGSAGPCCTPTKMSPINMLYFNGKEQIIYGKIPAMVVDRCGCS
FcRn receptor, sequence (P55899 24-297, chain 1 of 2): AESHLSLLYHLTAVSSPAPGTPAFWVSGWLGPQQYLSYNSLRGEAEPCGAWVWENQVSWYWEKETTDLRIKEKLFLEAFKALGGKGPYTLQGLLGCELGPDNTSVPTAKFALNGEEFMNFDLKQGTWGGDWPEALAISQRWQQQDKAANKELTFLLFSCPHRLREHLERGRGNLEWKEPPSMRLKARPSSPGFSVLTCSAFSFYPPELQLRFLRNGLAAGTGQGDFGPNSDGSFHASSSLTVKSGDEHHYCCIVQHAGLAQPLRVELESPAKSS
FcRn receptor, sequence (P61769 21-119, chain 2 of 2, further chain): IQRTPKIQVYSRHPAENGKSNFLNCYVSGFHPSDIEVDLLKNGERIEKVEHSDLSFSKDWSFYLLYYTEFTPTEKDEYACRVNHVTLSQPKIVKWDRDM
Activin A, sequence (P08476 311-426): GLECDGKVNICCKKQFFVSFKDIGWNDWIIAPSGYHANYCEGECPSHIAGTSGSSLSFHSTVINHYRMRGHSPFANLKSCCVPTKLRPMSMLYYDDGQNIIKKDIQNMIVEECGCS

Substance	Myostatin IC50, cell-based assay for SMAD pathway (A204 luciferase reporter) (Myostatin [1])	Activin A IC50, cell-based assay for SMAD pathway (A204 luciferase reporter) (Activin A)	Kd (FcRn receptor [2])	Kd (Myostatin [3])	Kd (FcRn receptor [4])	Kd (Myostatin [5])
FS315K(81,82,84)E-hFcLALA (Fc fusion)	0.4 nM	1 nM	–	–	–	–
FS315R78E/K(82,84)E-hFcLALA (Fc fusion)	0.5 nM	0.6 nM	–	–	–	–
FS315ΔHBS-hFcLALA (Fc fusion)	0.4 nM	–	372 nM	0.0174 nM	48 nM	–
monoFS315ΔHBS-hFcLALA (Fc fusion)	–	–	36.7 nM	–	–	0.0033 nM
